In patent US20160333061A1:

Columns and labels:
Test in all cases: cell-based or functional assay
[1] = biological target: CytERM-EBFP2 (Aequorea victoria (Water jellyfish) (Mesonema victoria)) [GFP: P42212]
CytERM-mTagBFP = biological target: CytERM-mTagBFP
[2] = biological target: CytERM-moxBFP (Aequorea victoria (Water jellyfish) (Mesonema victoria)) [GFP: P42212]

## CytERM-EBFP2 (from UniProt P42212 2-238)
[1]
  % Cells with OSER Structures (n = cells): 63.7%

## CytERM-mTagBFP
CytERM-mTagBFP
  % Cells with OSER Structures (n = cells): 43.5%

## CytERM-moxBFP (from UniProt P42212 2-238)
[2]
  % Cells with OSER Structures (n = cells): 0.9%
